IntAct's records for PubMed 15486100

B1: Transcription factor PIF5 (Arabidopsis thaliana (Mouse-ear cress)), Q84LH8 (parent)
chain: MEQVFADWNFEDNFHMSTNKRSIRPEDELVELLWRDGQVVLQSQARREPSVQVQTHKQETLRKPNNIFLDNQETVQKPNYAALDDQETVSWIQYPPDDVIDPFESEFSSHFFSSIDHLGGPEKPRTIEETVKHEAQAMAPPKFRSSVITVGPSHCGSNQSTNIHQATTLPVSMSDRSKNVEERLDTSSGGSSGCSYGRNNKETVSGTSVTIDRKRKHVMDADQESVSQSDIGLTSTDDQTMGNKSSQRSGSTRRSRAAEVHNLSERRRRDRINERMKALQELIPHCSRTDKASILDEAIDYLKSLQMQLQVMWMGSGMAAAAAAAASPMMFPGVQSSPYINQMAMQSQMQLSQFPVMNRSAPQNHPGLVCQNPVQLQLQAQNQILSEQLARYMGGIPQMPPAGNQMQTVQQQPADMLGFGSPAGPQSQLSAPATTDSLHMGKIG
B2: Transcription factor PIF6 (Arabidopsis thaliana (Mouse-ear cress)), Q8L5W7 (parent)
chain: MMFLPTDYCCRLSDQEYMELVFENGQILAKGQRSNVSLHNQRTKSIMDLYEAEYNEDFMKSIIHGGGGAITNLGDTQVVPQSHVAAAHETNMLESNKHVDDSETLKASSSKRMMVDYHNRKKIKFIPPDEQSVVADRSFKLGFDTSSVGFTEDSEGSMYLSSSLDDESDDARPQVPARTRKALVKRKRNAEAYNSPERNQRNDINKKMRTLQNLLPNSHKDDNESMLDEAINYMTNLQLQVQMMTMGNRFVTPSMMMPLGPNYSQMGLAMGVGMQMGEQQFLPAHVLGAGLPGINDSADMLRFLNHPGLMPMQNSAPFIPTENCSPQSVPPSCAAFPNQIPNPNSLSNLDGATLHKKSRKTNR
B3: Transcription factor PIF3 (Arabidopsis thaliana (Mouse-ear cress)), O80536 (parent)
chain: MPLFELFRLTKAKLESAQDRNPSPPVDEVVELVWENGQISTQSQSSRSRNIPPPQANSSRAREIGNGSKTTMVDEIPMSVPSLMTGLSQDDDFVPWLNHHPSLDGYCSDFLRDVSSPVTVNEQESDMAVNQTAFPLFQRRKDGNESAPAASSSQYNGFQSHSLYGSDRARDLPSQQTNPDRFTQTQEPLITSNKPSLVNFSHFLRPATFAKTTNNNLHDTKEKSPQSPPNVFQTRVLGAKDSEDKVLNESVASATPKDNQKACLISEDSCRKDQESEKAVVCSSVGSGNSLDGPSESPSLSLKRKHSNIQDIDCHSEDVEEESGDGRKEAGPSRTGLGSKRSRSAEVHNLSERRRRDRINEKMRALQELIPNCNKVDKASMLDEAIEYLKSLQLQVQIMSMASGYYLPPAVMFPPGMGHYPAAAAAMAMGMGMPYAMGLPDLSRGGSSVNHGPQFQVSGMQQQPVAMGIPRVSGGGIFAGSSTIGNGSTRDLSGSKDQTTTNNNSNLKPIKRKQGSSDQFCGSS
B4: Transcription factor PIF4 (Arabidopsis thaliana (Mouse-ear cress)), Q8W2F3-2 (parent)
chain: MEHQGWSFEENYSLSTNRRSIRPQDELVELLWRDGQVVLQSQTHREQTQTQKQDHHEEALRSSTFLEDQETVSWIQYPPDEDPFEPDDFSSHFFSTMDPLQRPTSETVKPKSSPEPPQVMVKPKACPDPPPQVMPPPKFRLTNSSSGIRETEMEQYSVTTVGPSHCGSNPSQNDLDVSMSHDRSKNIEEKLNPNASSSSGGSSGCSFGKDIKEMASGRCITTDRKRKRINHTDESVSLSDAIGNKSNQRSGSNRRSRAAEVHNLSERVLHRFVYIIYNI

Variants of: B1
Details: with phyb_arath PHYB

With MEQVFADWNFEDNFHMSTNKRSIRPEDELVALLWRDGQVVLQSQARREPSVQVQTHKQETLRKPNNIFLDNQETVQKPNYAALDDQETVSWIQYPPDDVIDPFESEFSSHFFSSIDHLGGPEKPRTIEETVKHEAQAMAPPKFRSSVITVGPSHCGSNQSTNIHQATTLPVSMSDRSKNVEERLDTSSGGSSGCSYGRNNKETVSGTSVTIDRKRKHVMDADQESVSQSDIGLTSTDDQTMGNKSSQRSGSTRRSRAAEVHNLSERRRRDRINERMKALQELIPHCSRTDKASILDEAIDYLKSLQMQLQVMWMGSGMAAAAAAAASPMMFPGVQSSPYINQMAMQSQMQLSQFPVMNRSAPQNHPGLVCQNPVQLQLQAQNQILSEQLARYMGGIPQMPPAGNQMQTVQQQPADMLGFGSPAGPQSQLSAPATTDSLHMGKIG [E31A] as the variant, how does the “effect of a mutation on the interaction” value read?
Its value is “decreasing interaction”.

With MEQVFADWNFEDNFHMSTNKRSIRPEDELVEALWRDGQVVLQSQARREPSVQVQTHKQETLRKPNNIFLDNQETVQKPNYAALDDQETVSWIQYPPDDVIDPFESEFSSHFFSSIDHLGGPEKPRTIEETVKHEAQAMAPPKFRSSVITVGPSHCGSNQSTNIHQATTLPVSMSDRSKNVEERLDTSSGGSSGCSYGRNNKETVSGTSVTIDRKRKHVMDADQESVSQSDIGLTSTDDQTMGNKSSQRSGSTRRSRAAEVHNLSERRRRDRINERMKALQELIPHCSRTDKASILDEAIDYLKSLQMQLQVMWMGSGMAAAAAAAASPMMFPGVQSSPYINQMAMQSQMQLSQFPVMNRSAPQNHPGLVCQNPVQLQLQAQNQILSEQLARYMGGIPQMPPAGNQMQTVQQQPADMLGFGSPAGPQSQLSAPATTDSLHMGKIG [L32A] as the variant, how does the “effect of a mutation on the interaction” value read?
Its value is “decreasing interaction”.

With MEQVFADWNFEDNFHMSTNKRSIRPEDELVELLWRDAQVVLQSQARREPSVQVQTHKQETLRKPNNIFLDNQETVQKPNYAALDDQETVSWIQYPPDDVIDPFESEFSSHFFSSIDHLGGPEKPRTIEETVKHEAQAMAPPKFRSSVITVGPSHCGSNQSTNIHQATTLPVSMSDRSKNVEERLDTSSGGSSGCSYGRNNKETVSGTSVTIDRKRKHVMDADQESVSQSDIGLTSTDDQTMGNKSSQRSGSTRRSRAAEVHNLSERRRRDRINERMKALQELIPHCSRTDKASILDEAIDYLKSLQMQLQVMWMGSGMAAAAAAAASPMMFPGVQSSPYINQMAMQSQMQLSQFPVMNRSAPQNHPGLVCQNPVQLQLQAQNQILSEQLARYMGGIPQMPPAGNQMQTVQQQPADMLGFGSPAGPQSQLSAPATTDSLHMGKIG [G37A] as the variant, how does the “effect of a mutation on the interaction” value read?
The value was “decreasing interaction”.

How did the “effect of a mutation on the interaction” value turn out when MEQVFADWNFEDNFHMSTNKRSIRPEDELVELLWRDGAVVLQSQARREPSVQVQTHKQETLRKPNNIFLDNQETVQKPNYAALDDQETVSWIQYPPDDVIDPFESEFSSHFFSSIDHLGGPEKPRTIEETVKHEAQAMAPPKFRSSVITVGPSHCGSNQSTNIHQATTLPVSMSDRSKNVEERLDTSSGGSSGCSYGRNNKETVSGTSVTIDRKRKHVMDADQESVSQSDIGLTSTDDQTMGNKSSQRSGSTRRSRAAEVHNLSERRRRDRINERMKALQELIPHCSRTDKASILDEAIDYLKSLQMQLQVMWMGSGMAAAAAAAASPMMFPGVQSSPYINQMAMQSQMQLSQFPVMNRSAPQNHPGLVCQNPVQLQLQAQNQILSEQLARYMGGIPQMPPAGNQMQTVQQQPADMLGFGSPAGPQSQLSAPATTDSLHMGKIG [Q38A] was run?
The value was “decreasing interaction”.

Variants of: B2
Details: with phyb_arath PHYB

For MMFLPTDYCCRLSDQEYMALVFENAQILAKGQRSNVSLHNQRTKSIMDLYEAEYNEDFMKSIIHGGGGAITNLGDTQVVPQSHVAAAHETNMLESNKHVDDSETLKASSSKRMMVDYHNRKKIKFIPPDEQSVVADRSFKLGFDTSSVGFTEDSEGSMYLSSSLDDESDDARPQVPARTRKALVKRKRNAEAYNSPERNQRNDINKKMRTLQNLLPNSHKDDNESMLDEAINYMTNLQLQVQMMTMGNRFVTPSMMMPLGPNYSQMGLAMGVGMQMGEQQFLPAHVLGAGLPGINDSADMLRFLNHPGLMPMQNSAPFIPTENCSPQSVPPSCAAFPNQIPNPNSLSNLDGATLHKKSRKTNR [E19A;G25A], which “effect of a mutation on the interaction” value is on record?
Its value is “decreasing interaction”.

Variants of: B3
Details: with phyb_arath PHYB

Which “effect of a mutation on the interaction” value does the source give for MPLFELFRLTKAKLESAQDRNPSPPVDEVVALVWENAQISTQSQSSRSRNIPPPQANSSRAREIGNGSKTTMVDEIPMSVPSLMTGLSQDDDFVPWLNHHPSLDGYCSDFLRDVSSPVTVNEQESDMAVNQTAFPLFQRRKDGNESAPAASSSQYNGFQSHSLYGSDRARDLPSQQTNPDRFTQTQEPLITSNKPSLVNFSHFLRPATFAKTTNNNLHDTKEKSPQSPPNVFQTRVLGAKDSEDKVLNESVASATPKDNQKACLISEDSCRKDQESEKAVVCSSVGSGNSLDGPSESPSLSLKRKHSNIQDIDCHSEDVEEESGDGRKEAGPSRTGLGSKRSRSAEVHNLSERRRRDRINEKMRALQELIPNCNKVDKASMLDEAIEYLKSLQLQVQIMSMASGYYLPPAVMFPPGMGHYPAAAAAMAMGMGMPYAMGLPDLSRGGSSVNHGPQFQVSGMQQQPVAMGIPRVSGGGIFAGSSTIGNGSTRDLSGSKDQTTTNNNSNLKPIKRKQGSSDQFCGSS [E31A;G37A] here?
Its value is “decreasing interaction”.

Variants of: B4
Details: with phyb_arath PHYB

MEHQGWSFEENYSLSTNRRSIRPQDELVALLWRDAQVVLQSQTHREQTQTQKQDHHEEALRSSTFLEDQETVSWIQYPPDEDPFEPDDFSSHFFSTMDPLQRPTSETVKPKSSPEPPQVMVKPKACPDPPPQVMPPPKFRLTNSSSGIRETEMEQYSVTTVGPSHCGSNPSQNDLDVSMSHDRSKNIEEKLNPNASSSSGGSSGCSFGKDIKEMASGRCITTDRKRKRINHTDESVSLSDAIGNKSNQRSGSNRRSRAAEVHNLSERVLHRFVYIIYNI [E29A;G35A] was tested. Which “effect of a mutation on the interaction” value did it give?
The value was “decreasing interaction”.

Which “effect of a mutation on the interaction” value does the source give for MEHQGWSFEENYSLSTNRRSIRPQDELVELLWRDAQVVLQSQTHREQTQTQKQDHHEEALRSSTFLEDQETVSWIQYPPDEDPFEPDDFSSHFFSTMDPLQRPTSETVKPKSSPEPPQVMVKPKACPDPPPQVMPPPKFRLTNSSSGIRETEMEQYSVTTVGPSHCGSNPSQNDLDVSMSHDRSKNIEEKLNPNASSSSGGSSGCSFGKDIKEMASGRCITTDRKRKRINHTDESVSLSDAIGNKSNQRSGSNRRSRAAEVHNLSERVLHRFVYIIYNI [G35A] here?
The value was “decreasing interaction”.
